Test: Pharmacokinetics in mice (ELISA of blood samples)
Type: in vivo
Conditions: 70 μg injected, BALB/c mice
Description: For PK study in mice, 70 μg of the immunoglobulin constructs described herein were injected into 3 BALB/c mice per group. Blood samples were drawn from time 0 to 14 days with extended intervals and analyzed by ELISA using anti-human IgG Fc antibody with horseradish peroxidase (HRP) labeled (KPL) and anti-6×His antibody (“6×His” disclosed as SEQ ID NO: 511) with HRP labeled (Clontech). Data were normalized by taking maximal concentration at the first time point (30 min).

B1: Ab: bovine BLV1H12 antibody with ultralong CDR3, no insertion; scaffold of the fusions and control (antibody)
heavy: QVQLRESGPSLVKPSQTLSLTCTASGFSLSDKAVGWVRQAPGKALEWLGSIDTGGNTGYNPGLKSRLSITKDNSKSQVSLSVSSVTTEDSATYYCTSVHQETKKYQSCPDGYRERSDCSNRPACGTSDCCRVSVFGNCLTTLPVSYSYTYNYEWHVDVWGQGLLVTVSS
light: QAVLNQPSSVSGSLGQRVSITCSGSSSNVGNGYVSWYQLIPGSAPRTLIYGDTSRASGVPDRFSGSRSGNTATLTISSLQAEDEADYFCASAEDSSSNAVFGSGTTLTVLGQPKSPPSVTLFPPSTEELNGNKATLVCLISDFYPGSVTVVWKADGSTITRNVETTRASKQSNSKYAASSYLSLTSSDWKSKGSYSCEVTHEGSTVTKTVKPSECS
With B1 the “Percentage (blood level normalized to first time point, 30 min)” value (day 0.021) was 100.00%, the “Percentage (blood level normalized to first time point, 30 min)” value (day 0.042) was 106.09% and the “Percentage (blood level normalized to first time point, 30 min)” value (day 0.083) was 95.88%. For the same molecule, the “Percentage (blood level normalized to first time point, 30 min)” value (day 0.125) was 86.54%, the “Percentage (blood level normalized to first time point, 30 min)” value (day 0.250) was 74.26% and the “Percentage (blood level normalized to first time point, 30 min)” value (day 1.000) was 52.43%. The “Percentage (blood level normalized to first time point, 30 min)” value (day 2.000) was 39.46%, the “Percentage (blood level normalized to first time point, 30 min)” value (day 3.000) was 36.97% and the “Percentage (blood level normalized to first time point, 30 min)” value (day 8.000) was 45.44%. The “Percentage (blood level normalized to first time point, 30 min)” value (day 10.000) was 40.98% and the “Percentage (blood level normalized to first time point, 30 min)” value (day 14.000) was 51.96%.

Source: US10774132B2, “Ultralong complementarity determining regions and uses thereof” (THE SCRIPPS RESEARCH INSTITUTE, priority 2012, dated 2020)
